The test deals with mutant MAP7D1 p.R201W (MAP7D1:c.601C>T), His/Myc-tagged (human) (UniProt Q3KQU3). In words: pull-down; 600 µg lysate of HEK293T cells overexpressing His/Myc-MAP7D1 (wt or mutant) incubated with MagneHis Ni particles in 100 mM HEPES, 10 mM imidazole, 500 mM NaCl, 4°C, 4 h; eluted with 500 mM imidazole; western blot with Myc-tag and β-tubulin antibodies; β-tubulin normalised to precipitated Myc-MAP7D1. For orientation: Immunoblotting shows a protein as a band on a membrane.
Sequence of UniProt Q3KQU3 (Q3KQU3 whole entry R201W): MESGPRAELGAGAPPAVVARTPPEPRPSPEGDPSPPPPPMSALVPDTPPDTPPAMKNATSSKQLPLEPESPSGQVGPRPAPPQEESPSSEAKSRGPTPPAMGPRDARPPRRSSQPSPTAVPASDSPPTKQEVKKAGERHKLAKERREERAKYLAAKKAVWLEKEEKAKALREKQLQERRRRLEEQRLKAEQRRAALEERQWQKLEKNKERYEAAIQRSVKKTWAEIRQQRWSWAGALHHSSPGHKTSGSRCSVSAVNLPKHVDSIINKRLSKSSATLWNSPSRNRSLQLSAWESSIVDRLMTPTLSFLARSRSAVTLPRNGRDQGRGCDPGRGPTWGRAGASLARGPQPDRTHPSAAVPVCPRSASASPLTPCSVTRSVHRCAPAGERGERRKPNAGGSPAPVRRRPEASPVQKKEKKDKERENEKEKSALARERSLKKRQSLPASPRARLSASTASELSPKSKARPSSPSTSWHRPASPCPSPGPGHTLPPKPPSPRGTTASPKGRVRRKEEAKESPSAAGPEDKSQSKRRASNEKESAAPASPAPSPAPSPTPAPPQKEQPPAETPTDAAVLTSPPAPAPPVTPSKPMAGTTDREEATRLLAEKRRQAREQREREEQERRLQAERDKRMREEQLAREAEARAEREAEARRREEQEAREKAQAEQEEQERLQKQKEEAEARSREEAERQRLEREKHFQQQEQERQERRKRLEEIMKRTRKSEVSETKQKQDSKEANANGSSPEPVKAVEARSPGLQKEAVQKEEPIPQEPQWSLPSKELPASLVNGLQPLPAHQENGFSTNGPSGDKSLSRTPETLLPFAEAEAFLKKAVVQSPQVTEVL

The substance “β-tubulin (tubulin of microtubules) (from UniProt P07437 1-444) (natural protein)” registered a decrease of co-precipitated tubulin relative to wild-type MAP7D1 of 40%.

The record behind these values is article PMC12421802.
